Data on 28 molecules can be found in PMC4072508, “Genome-Wide Prediction and Validation of Peptides That Bind Human Prosurvival Bcl-2 Proteins” (PLoS Computational Biology, 2014).

The target in one test is T1, Mcl-1, Q07820.
T1 chain: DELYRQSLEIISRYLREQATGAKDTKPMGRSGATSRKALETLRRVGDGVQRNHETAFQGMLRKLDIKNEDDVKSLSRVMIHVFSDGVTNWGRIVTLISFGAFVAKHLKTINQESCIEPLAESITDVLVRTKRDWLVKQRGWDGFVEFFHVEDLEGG
Kind of test: peptide SPOT array, c-Myc-tagged receptor at 1 uM or 100 nM, anti-c-Myc-Cy3.

For another test, the target named is Bcl-xL, Q07817. Described as above.
Chain of Bcl-xL, Q07817 (Q07817 1-209): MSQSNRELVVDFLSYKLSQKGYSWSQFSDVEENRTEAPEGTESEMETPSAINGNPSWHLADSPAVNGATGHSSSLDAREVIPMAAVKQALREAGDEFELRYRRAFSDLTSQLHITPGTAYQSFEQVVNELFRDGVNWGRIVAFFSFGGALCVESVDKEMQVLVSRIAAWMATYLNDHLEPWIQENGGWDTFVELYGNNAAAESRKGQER

Regarding CILNSFYGYVMRKGLRWYSMEMAGIV [POLE], the SPOT signal as a fraction of Bim BH3's signal on the same receptor and array was determined as 0.24 with Mcl-1, Q07820 and 0.29 with Bcl-xL, Q07817.
In the case of QRLINLVGESLRLLGNTFVALSDLRC [BAT3], the SPOT signal as a fraction of Bim BH3's signal on the same receptor and array in the test with Mcl-1, Q07820 turned out to be 0.03; in the test with Bcl-xL, Q07817, 0.05.
On to AFTEREASEIMKSILEAIQYLHSINI [MAPKAPK2], for which the SPOT signal as a fraction of Bim BH3's signal on the same receptor and array is 0.01 in the test with Mcl-1, Q07820 and 0.02 in the test with Bcl-xL, Q07817.
With KNIAGALAFWDANASELLNFIKQDRD [MLLT4], the SPOT signal as a fraction of Bim BH3's signal on the same receptor and array amounted to 0.02 with Mcl-1, Q07820 and 0.02 in the test with Bcl-xL, Q07817.
Take SRQPRDFGDSDARGGKGFLRGVVGGV [VPS13C]: the SPOT signal as a fraction of Bim BH3's signal on the same receptor and array with Mcl-1, Q07820 turned out to be 0.17; with Bcl-xL, Q07817 it was 0.48.
Turning to DLSAVTLSREDQAMAEQLAENYHNTW, the SPOT signal as a fraction of Bim BH3's signal on the same receptor and array with Mcl-1, Q07820 was 0.02; in the test with Bcl-xL, Q07817, 0.02.
For the molecule LGLGELAGLTVANEADSLTYDIANNK [STRN], the SPOT signal as a fraction of Bim BH3's signal on the same receptor and array with Mcl-1, Q07820 was 0.01; with Bcl-xL, Q07817 it was 0.02.
With SKFVILSAHKLVFIGDTLTRQVTAQD [NEDD9], the SPOT signal as a fraction of Bim BH3's signal on the same receptor and array is 0.04 in the test with Mcl-1, Q07820 and 0.05 with Bcl-xL, Q07817.
In the same order, the values of DLLGMVVVDELHMLLDSHRGYLLELL [POLQ] are 0.02 and 0.02.
Regarding RDPQGWVAGNLSARGDGAAGFTLPGF [MST1R], the SPOT signal as a fraction of Bim BH3's signal on the same receptor and array with Mcl-1, Q07820 stood at 0.02; with Bcl-xL, Q07817, 0.02.
Take IGFFIAFGIAMGKMGDQAKLMVDFFN [SLC1A2]: the SPOT signal as a fraction of Bim BH3's signal on the same receptor and array with Mcl-1, Q07820 amounted to 0.02; with Bcl-xL, Q07817 it was 0.02.
Regarding SHALICISHWILGILDRHLNNFMVAM [PRKDC], the SPOT signal as a fraction of Bim BH3's signal on the same receptor and array was found to be 0.02 with Mcl-1, Q07820 and 0.03 with Bcl-xL, Q07817.
Regarding ISDVQVFGYSLRFNADLLRSAVQQVN [DBC1], the SPOT signal as a fraction of Bim BH3's signal on the same receptor and array turned out to be 0.02 with Mcl-1, Q07820 and 0.02 in the test with Bcl-xL, Q07817.
In the case of CALLGSTGERDCLAGDSAGGNLCFTV [LIPE], the SPOT signal as a fraction of Bim BH3's signal on the same receptor and array with Mcl-1, Q07820 worked out at 0.01; with Bcl-xL, Q07817, 0.01.
With VLSRIEAGRSLKSVMDEFGISKSTFY, the SPOT signal as a fraction of Bim BH3's signal on the same receptor and array with Mcl-1, Q07820 amounted to 0.11; with Bcl-xL, Q07817 it was 0.11.
Take DLSAVTLSRELQAMAEQLAENYHNTW: the SPOT signal as a fraction of Bim BH3's signal on the same receptor and array worked out at 0.02 with Mcl-1, Q07820 and 0.02 in the test with Bcl-xL, Q07817.
In the case of CDLLGAKGKDILYILDHIFGDILKSK [NT5C2], the SPOT signal as a fraction of Bim BH3's signal on the same receptor and array with Mcl-1, Q07820 was 0.06; with Bcl-xL, Q07817 it was 0.06.
Regarding NKTMTQLSSTLARCAKDILGFAVMFF [PKD2L1], the SPOT signal as a fraction of Bim BH3's signal on the same receptor and array with Mcl-1, Q07820 amounted to 0.11; in the test with Bcl-xL, Q07817, 0.15.
Consider TLHFNQRGTWLASGSDDLKVVVWDWV [DCAF8], for which the SPOT signal as a fraction of Bim BH3's signal on the same receptor and array with Mcl-1, Q07820 turned out to be 0.02; with Bcl-xL, Q07817, 0.02.
With VLSRIEAGRSLKSVADEFGISKSTFY [TIGD7_3eA], the SPOT signal as a fraction of Bim BH3's signal on the same receptor and array in the test with Mcl-1, Q07820 is 0.02; with Bcl-xL, Q07817, 0.95.
On to DEHISYVATKDCHLGDQLEGVNTPRQ [EXOC5], for which the SPOT signal as a fraction of Bim BH3's signal on the same receptor and array is 0.01 with Mcl-1, Q07820 and 0.02 in the test with Bcl-xL, Q07817.
For the molecule PPDAHVLGKADEAAGQDFSLDLRSTG [CIITA], the SPOT signal as a fraction of Bim BH3's signal on the same receptor and array came out at 0.01 in the test with Mcl-1, Q07820 and 0.01 with Bcl-xL, Q07817.
For the molecule RHFVIRRGQVLREIAEEYGGVMVSFP [HDLBP], the SPOT signal as a fraction of Bim BH3's signal on the same receptor and array with Mcl-1, Q07820 amounted to 0.04; with Bcl-xL, Q07817, 0.05.
With HPRKESQVRQDAWVGDGVWVSIRLDS [SPAG9], the SPOT signal as a fraction of Bim BH3's signal on the same receptor and array was determined as 0.02 in the test with Mcl-1, Q07820 and 0.02 with Bcl-xL, Q07817.
With GKPETCTGQDLADLLDRLRDWFQLLH [SPOCK2], the SPOT signal as a fraction of Bim BH3's signal on the same receptor and array with Mcl-1, Q07820 was found to be 0.01; in the test with Bcl-xL, Q07817 it was 0.02.
Consider LNAVNYISTVDADWADNVFFLQLQQA, for which the SPOT signal as a fraction of Bim BH3's signal on the same receptor and array in the test with Mcl-1, Q07820 came to 0.03; with Bcl-xL, Q07817, 0.02.
The like results for VLSRIEAGRSDKSVMDEFGISKSTFY were, in that order, 0.02 and 0.02.
Regarding LNAVNYISTVLADWLDNVFFLQLQQA, the SPOT signal as a fraction of Bim BH3's signal on the same receptor and array with Mcl-1, Q07820 worked out at 0.03; in the test with Bcl-xL, Q07817 it was 0.02.
